Here are results for four molecules from PMC4598320, “Novel binders derived from an albumin-binding domain scaffold targeting human prostate secretory protein 94 (PSP94)” (Protein & Cell, 2015).

The target in assay [1] is T1, recombinant HisTag-PSP94 (human prostate secretory protein 94) (human, UniProt P08118 21-114, fluorescent label (in the microscale thermophoresis only)).
T1 construct: prostate secretory protein 94 (PSP94, β-microseminoprotein), human, product of the MSMB gene; The letter has no methods section; the construct may be told in the supplementary file; also called His-PSP94; β-microseminoprotein; not shown: His tag, N-terminal, kept
T1 sequence (looked up): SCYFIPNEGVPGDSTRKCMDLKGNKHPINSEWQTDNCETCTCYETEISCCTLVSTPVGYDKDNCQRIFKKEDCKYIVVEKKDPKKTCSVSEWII
The experiment in a line: MST; fluorescently labelled HisTag-PSP94 in solution, PAB variants titrated; thermophoresis + T-jump data, NanoTemper software. The following applies: both partners purified.

For assay [2], the target named is T2, PSP94 of LNCaP prostate cancer cells (membrane-bound on the cell surface); intracellular in permeabilized … (human (endogenous in LNCaP), UniProt P08118 21-114).
T2 construct: the cells were not transfected; source: endogenous, LNCaP cells (on the cell surface; inside permeabilized cells)
T2 sequence (looked up): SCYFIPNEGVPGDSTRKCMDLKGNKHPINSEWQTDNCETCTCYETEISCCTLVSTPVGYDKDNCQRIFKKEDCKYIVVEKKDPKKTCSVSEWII
The experiment in a line: flow cytometry on cells; competition: LNCaP cells with (80 µg/mL) or without rabbit polyclonal antibody sc-68920 for 15 min on ice, then PAB binders at 10 µg/mL for 30 min; streptavidin-PE. The following applies: one partner purified.

For the next assay, the target named is both these PAB proteins. In words: flow cytometry on cells; competition: PAB variants mixed with increasing concentrations of recombinant HisTag-PSP94 and left to bind LNCaP cells for 30 min; streptavidin-PE; binding without PSP94 taken as 100%; pair recombinant PSP94 with PAB. (In general: In flow cytometry, cells or beads pass a laser one at a time.)

Where “and” joins values, the source holds several entries; their conditions need not be identical. Equal values may be shown once. Ends that are not written are not given here.

B1: PAB046 (HisTag-PAB-TolA-AviTag fusion protein) (designed binder)
chain: LAEAKVLANRELDKYGVSDRYKNAINRAPAVWWVKRLIDAILAALP
modifications: not fully specified (N-terminus, C-terminus)
notes: numbers count on: the 46-residue ABD scaffold; positions 20-46 of the ABD scaffold with the 11 randomized positions as selected in PAB046; 46-residue ABD variant linked to a 305-residue TolA spacer with a C-terminal AviTag; also called PAB046 variant; source: E. coli, purified, in vivo biotinylated; not shown: His tag, N-terminal, kept; TolA spacer (helical, 305 amino acids), C-terminal, kept; …
Consider B1, for which the Kd in assay [1] is 49 ± 10 nM. In addition, the “percent inhibition of binding by polyclonal antibody sc-68920 (the pair that is blocked)” value (shortened to “percent inhibition of binding”) in assay [2] came out at 30%.

B2: PAB050 (HisTag-PAB-TolA-AviTag fusion protein) (designed binder)
chain: LAEAKVLANRELDKYGVSDLYKNHINTAWRVAAVKRAIDLILASLP
modifications: not fully specified (N-terminus, C-terminus)
notes: numbers count on: the 46-residue ABD scaffold; positions 20-46 of the ABD scaffold with the 11 randomized positions as selected in PAB050; 46-residue ABD variant linked to a 305-residue TolA spacer with a C-terminal AviTag; also called PAB50; PAB050 variant; source: E. coli, purified, in vivo biotinylated; not shown: His tag, N-terminal, kept; TolA spacer (helical, 305 amino acids), C-terminal, …
As for B2, in assay [1], the dissociation constant Kd was 10 nM and 12 nM and 21 nM. Moreover, in assay [2], the “percent inhibition of binding” value turned out to be 30%.

B3: recombinant HisTag-PSP94 (human prostate secretory protein 94) (natural protein)
chain: SCYFIPNEGVPGDSTRKCMDLKGNKHPINSEWQTDNCETCTCYETEISCCTLVSTPVGYDKDNCQRIFKKEDCKYIVVEKKDPKKTCSVSEWII
modifications: fluorescent label (in the microscale thermophoresis only)
Turning to B3, the percent inhibition of PAB binding to LNCaP cells at 20 µg/mL PSP94 with both these PAB proteins is 5 to 10%.

B4: PAB036 (HisTag-PAB-TolA-AviTag fusion protein) (designed binder)
chain: LAEAKVLANRELDKYGVSDWYKNGINPAHRVRWVKGRIDAILARLP
modifications: not fully specified (N-terminus, C-terminus)
notes: numbers count on: the 46-residue ABD scaffold; positions 20-46 of the ABD scaffold with the 11 randomized positions as selected in PAB036; 46-residue ABD variant linked to a 305-residue TolA spacer with a C-terminal AviTag; also called PAB036 variant; source: E. coli, purified, in vivo biotinylated; not shown: His tag, N-terminal, kept; TolA spacer (helical, 305 amino acids), C-terminal, kept; …
For the molecule B4, the Kd in assay [1] was 40 nM and 72 nM. Moreover, the “percent inhibition of binding” value in assay [2] was approximately 15%.

For orientation: Kd means the constant that tells how readily two partners part at equilibrium.
